US20230018670A1

Target: mB7H3 (endogenous mouse B7H3 on B16 and B78 cells) (mouse) (UniProt Q8VE98)
Assay: flow cytometry on B16 cells (no GD2, mouse B7H3), 1 ug antibody per million cells, GAH PE; anti-GD2 antibody as control

mB7H3 (endogenous mouse B7H3 on B16 and B78 cells) (mouse), sequence (Q8VE98 29-316 limits assumed): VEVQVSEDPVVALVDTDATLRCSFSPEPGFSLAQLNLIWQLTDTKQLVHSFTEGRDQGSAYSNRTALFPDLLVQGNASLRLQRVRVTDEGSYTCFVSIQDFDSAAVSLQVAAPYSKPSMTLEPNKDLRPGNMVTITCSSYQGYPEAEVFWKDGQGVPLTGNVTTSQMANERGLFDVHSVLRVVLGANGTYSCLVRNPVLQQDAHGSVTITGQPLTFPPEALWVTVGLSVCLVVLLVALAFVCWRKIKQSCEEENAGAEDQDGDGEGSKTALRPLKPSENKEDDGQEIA

In the case of Invenra Dinutuximab (antibody), the MFI is reported as 1 MFI.
